Results on 24 sequences are retold here after the DeepSol protein solubility set.

A short description of the series: soluble on expression in E. coli; label from the status in PepcDB or PDB records.
As to “GSHMSSLEKRLGKNEYFIITKSSPVRAILNDFAANYSIPVFISSSVNDDFSGEIKNEKPVKVLEKLSKLYHLTWYYDENILYIYKTNEISRSIITPTYLDIDSLLKYLSDTISVNKNSCNVRKITTFNSIEVRGVPECIKYITSLSESLDKEAQSK”, the “soluble on expression in E. coli” value is reported as “soluble”.
Consider “MSLLTEVETYVLSIIPSGPLKAEIAQKLEDVFAGKNTDLEALMEWLKTRPILSPLTKGILGFVFTLTVPSERGLQRRRFVQNALNGNGDPNNMDRAVKLYKKLKREITFHGAKEVALSYSTGALASCMGLIYNRMGTVTTEVAFGLVCATCEQIADSQHRSHRQMATITNPLIRHENRMVLASTTAKAMEQMAGSSEQAAEAMEVANQARQMVQAMRTIGTHPNSSAGLRDNLLENLQAYQKRMGVQMQRFK”, for which the “soluble on expression in E. coli” value is reported as “soluble”.
“MGSDKIHHHHHHMTPTVLLANPRGFCAGVDRAIAIVERALEKFGAPIYVRHEVVHNTFVVDDLKRKGAVFVEELSEVPAGATVIFSAHGVSQAVRTEAAARGLTVFDATCPLVTKVHVEVSKMRDKGYEIVMIGHKGHPEVEGTLGQSAGGMYLVETPGDVATLEVTNPDCLAYVTQTTLSVDDAARVVDALRARFPTITGPKKDDICYATQNRQDAVKHLASQCDVVIVVGSPTSSNSNRLREVAENLGIAAYMVDNADEIDPRWVSGNQRVGVTAGASAPDVLVRAVIDRLERLGICSVSELDGVQEKVGFPLPRELA”: the “soluble on expression in E. coli” value is given as “not soluble”.
On to “GSQDVKCSLGYFPCGNITKCLPQLLHCNGVDDCGNQADEDNCG”, for which the “soluble on expression in E. coli” value is on record as “soluble”.
On to “MSLTYEKIKQLRENREITQKEISNALDINVSVYNKIELGIRPLREEELTAIADFFNVSIDYLTGRTDNPTTPSNNQKEAGQNIISHFRLNTNDLSSDDIEELEKELIDFQEFLIKRAKERKEGGSHHHHHH”, for which the “soluble on expression in E. coli” value is “soluble”.
For “GPGSMSQLWVKRAKAEMTRHSRVLETINRVFPMPFEERRSRVGMTSYATYRWLRYFPVILVPVVVMGTLLETRDNPQEHVFTSLHLWLADHGVFRHDTVKALNPAFEDERRSIEWKANDRKWRFTGTDMPSEREIREFAAINIDHQSRRQL”, the “soluble on expression in E. coli” value is “soluble”.
In the case of “MIIAREKRRNNIAEYVLYMWQIEDLIRANELDMQRLRATVIAQYRQDTETTAEIDRWYAELVEMMLTEGVREQGHINIVRIAIMQMEEIHSRLMADPKEMIYQGLYYQVLPAIVQLRAKSAGSNTGEIETCLTAIYGLLTLRLQKKEVSEETLASIKQMSTLLSVLSEKFAAREEGTDEALL”, the “soluble on expression in E. coli” value is reported as “not soluble”.
With “SLQHAPLNFVPDAAKVPPTPGQSPNARWSREAIEALFALPFNDLLFQAQQVHRAHFDANAVQLSTLLSIKTGGCPEDCSYCPQSARYDTGVEAEKLMPIDTVLEAAARAKQNGASRFCMGAAWRNPKPHQLDAVADMVRGVKAMGLETCVTLGMLKQEQAQQLKDAGLDYYNHNLDTAPEFYGEIITTRTYQDRLDTLEHVRDAGINVCCGGIVGLGESRHERAGLVAELANMEPYPDSVPINNLVKVEGTPLAGNEALDPFEFVRTIAVARITMPKAMVRLSAGREAMDDALQALCFMAGANSIFYGEKLLTTDNPEADADRKLLARLGMRVEVQDHLHQAEGAQHSHSSHCHIDITPADEG”, the “soluble on expression in E. coli” value is recorded as “soluble”.
Regarding “MYKIMPLKVAEISVPLGVTIMMGDMRVMATGPVYVWVIDGGDEKIVVDSGVEEAKNGMFHGFPGKGGGEKGLREAMEKVNLKPEDVDKLIITHLHFDHAANAKLFTNARIYVQKREWESALNPPLHYRQTYDSSMLYPLEEMDLCLIDGDVEIAEGVKAVLLPGHTKGLQGVAVETEKGTYLLAADHFYTYFNFFPPKQPIQMTDTAGNTVEIPTSPLPFLPPGLHVDLSEWYESCFKALSVAKKANILPGHDPSLEGRVFPLEHHHHHH”, the “soluble on expression in E. coli” value is given as “not soluble”.
For the sequence “MGSDKIHHHHHHMLIVREFSNRFQQMSGMPINSNETKERLKAAGIDINSKQYRAVMSEMSRDGGGGYTTISAIKKRMSRYDKDGDWINPRTGLAGLLVTDKNCASKNRIVSISESIMDEMFESTKKEFFMENGVHNGDTTNRSEIYQKLYQQTEKNDRLAAGYTLEEYERQYWQAFTDAVKVADPKWEAGKPIMPGVLDRITSKSIDALLVKSGSQLIRKSFERMI”, the “soluble on expression in E. coli” value is listed as “not soluble”.
Regarding “SLKGSSAQVLVVEGEQGLNNDLSHSLEANGYLVTQCFNGKALQKEGLDDQLDLIILGATSESTEADLIQSIVMLREAVSTPIMLLGQKDCVESRIAFYTAGVDDYLTKPVNFSEFLIRVAVILKRVCSDSQMPKHADLLSGLDFEMDKRKGCIRSDEVELLLTPVEFKLLWALVSSGGRVLTKAFLYRNVLNRDFVQHDRSVDVHISRLRAKLSGVGVDTSRLETVHGEGYCYKEG”, the “soluble on expression in E. coli” value is “soluble”.
Turning to “MDANEFHWLMDMLESVEVGLVVLDLDFHVQAWNGFMEHHSGITARQIRDKVLFEVFPDIPEAWLTRKVDAVAMLNTRAFTSWEQRPYLFKFRNTRPITGTEEYMFQNLTISPITAPNGEVEKVCLLVYDVTEFASSKRALERANEQLAKLSMTDRLTGLLNRGTWENLVDAEYERFRRYGQATSLVMFDIDHFKPVNDTYGHLAGDEVIRHTADVTRNNIRQSDSAGRYGGEEFGIILPETDAESARVICERIREAIEKSTVSTSAGDIQYTVSMGIAQLTETPENYMQWMQKADEALYKAKESGRNKVVVSLEHHHHHH”, the “soluble on expression in E. coli” value is on record as “soluble”.
Then “MGHHHHHHSHSMKEENLCQAFSDALLCKIEDIDNEDWENPQLCSDYVKDIYQYLRQLEVLQSINPHFLDGRDINGRMRAILVDWLVQVHSKFRLLQETLYMCVGIMDRFLQVQPVSRKKLQLVGITALLLASKYEEMFSPNIEDFVYITDNAYTSSQIREMETLILKELKFELGRPLPLHFLRRASKAGEVDVEQHTLAKYLMELTLIDYDMVHYHPSKVAAAASCLSQKVLGQGKWNLKQQYYTGYTENEVLEVMQHMAKNVVKVNENLTKFIAIKNKYASSKLLKISMIPQLNSKAVKDLASPLIGRS”, with “not soluble”; and “MGSDKIHHHHHHMETITKKANLSLLELPSGGEESLFCRLYSPALAGPAPLIVLFHGFPGKQLNMDWAVQLQNLSFHVLVTSYRGTIGSPGAFRFRHVLEDATAIMQHVVSPEFTQAHDISADQISIVGHSMGGFAGLHAFIDVPDIAHYIGISPFNFGLIGQLVLDYPEHEEALQGVLSRGAQFLSHTDGDILLDELKRHHATWNLLSLKEQLGTRSALLVTSERDETSIKSLHHDLLQDASAFEQIIVDSDHNYIENREDAFRAWTTWLRRR”, with “not soluble”.
Regarding “MSQNDLNKEKALVVFSGGQDSTTCLFYAKKHFKEVELVTFNYGQRHDKEIEVAKKIAKEQNLKHHILDMSLLSQLTPNALTQHELSIEDNDDGIPNTFVPARNLLFLSFAGALAYQIHAKHIITGVCETDFSGYPDCRDSFIKSMNVTLSLSMDKDFVIHTPLMWLDKAQTWALSDKLGVLDYIRHNTLTCYNGIIGDGCGECPACHLRARGLKHYLEHKGEE”, the “soluble on expression in E. coli” value is reported as “not soluble”.
For “MKRVLVVDDEESITSSLSAILEEEGYHPDTAKTLREAEKKIKELFFPVIVLDVWMPDGDGVNFIDFIKENSPDSVVIVITGHGSVDTAVKAIKKGAYEFLEKPFSVERFLLTIKHAFEEYSKKAPPQEEIEFVGEHPKILEIKRLIPKIAKSKAPVLITGESGTGKEIVARLIHRYSGRKGAFVDLNCASIPQELAESELFGHEKGAFTGALTRKKGKLELADQGTLFLDEVGELDQRVQAKLLRVLETGSFTRLGGNQKIEVDIRVISATNKNLEEEIKKGNFREDLYYRLSVFQIYLPPLRERGKDVILLAEYFLKKFAKEYKKNCFELSEETKEYLMKQEWKGNVRELKNLIERAVILCEGEVIKPEDLGLKEKSWRDLSYLLKIKELKEAKKEFEKIFIEEKLREYDYDLKRTAEEIGIDLSNLYRKIKSLNIRVKSS”, the “soluble on expression in E. coli” value is listed as “soluble”.
In the case of “MARFSSVLIYDGECPYCSVAAKALEQVDDIGAISWYDESAQSFLTAQFDEPPFAMVLVDRPAQQVYAGRAAAEELAGRAGLPDLVGSLVRDNYEKIAHVVGLASGRGLEHHHHHH”, the “soluble on expression in E. coli” value was “not soluble”.
The same measure for “MKQLSFLPGEMTPQDRRLIQRALRALDRHLHEPGVAFTSTHAVREWLRLHMAALEREEFRVLYLDNQNQLIAHETLFTGTINRTEVHPREVVKRALHFNAAAVILAHNHPSGETTPSQADKTLTQRLVQVLQLVDIRVPDHLIVGGRQIYSFAEHGLL”: “not soluble”; for “INKVPVTVFLWRPEKYWPADFVSENVKNFGYTVEEFTSGKVLYGNIVHPDDFERVERELSRRIEEDYVDFSQEYRILTKSGEARWVEERTFIEADENGVVKYLKGIILDIT”: “not soluble”; for “GPGSMPSITTAKREYEERLVDCLTKYSCVLFVGMDNVRSQQVHDVRRALRGKAEFMMGKKTLQAKIVEKRAQAKDASAEAKHFNDQCEEYNLLSGNTGLIFTNNAVQEITSVLDAHRVKAPARVGAISPCDVIVPAGSTGMEPTQTSFFQALNIATKIAKGMVEIVTEKKVLSVGDKVDNSTATLLQKLNISPFYYQVNVLSVWDRGVLFTREDLMMTEDMVEKMLMDGLS”: “not soluble”.
“MPFVRPLVTVVRAGRHSYSAGLQLQQRLARSNQILNPPAEFRNYLVLQEHDPVYTVGLRTKDYTAQDEDRLRRLGADFHRTDRGGLITFHGPGQLVAYPILHLGQFVPSIRWYVATLERMVVEACHQMGISSAKATKDTGIWVGDNKICAIGIHGSRYVTTHGIGLNCCTDLQWFEHIVPCGIEGKGVTSLSKELDRHFPVEEASGALLNSFAKVFECRLQEHAKKPASSAEIG”: the “soluble on expression in E. coli” value was “not soluble”.
The same measure for “MGSDKIHHHHHHMRLLFRKAGEFFRDFVSIFKHISDDLEMYLKLDPAAESKLQVFFFYASFQGLMWYRFAHFFYKWKLKVLAYLIYYFVRVVFSMDIHPAARIAPGVVIDHGIGVVIGSTASVGRGTLIYHGVTLGTRKPCSGKRHPDVGENVMIGTGAKILGPIRVGNNAVVGANAVVLEDVPDGAVVVGVPARIVKWRRDFCDDGKTDREHSYSETRFDRLENLLETGKE”: “not soluble”; for “MSLNDGNAMGQVIQIDEARIRDHLGEMVRGTVEETLNAMLEAEADQLCGAGRYERSPARQDTRAGSYERTLQTKAGDVNLKVPKLRRQTFETAIIERYRRRESSVEEALIEMYLAGISVRRVEDITEALWGTRVSPSTVSNLNKKIYAKIEAWRNRRIEGEHPYLYLDGIVMKRSWAGEVRNVSLLVASAVNAEGFREILGICEGAKEDKSGWSSFLRHLVDRGLKGVQLVVSDACRGLVESVADYLPEARYQRCMVHFYRNVFSHVPSTRVHEVSHMLKAIHAQESRAAADEKARTVIADLRASRMAKAADLVEQAVHETLAYYAFPDIHWRKIRTNNPLERIMKEIRRRTRVVGAFPDGQSCLNLAAARLRHIAGTAWSTKCYMNMRPLYQPQLSETGAVAEGHHHHHH”: “soluble”; for “MSQSTSAGGSQAVAQNPGAKLGFSMRSASIASDSVPCESGLCEAPPGVLSGAGTVFCESTYKVKIDNETVWQVPTRLKFVKKVGSGAYGCVASFEDTSASASEQGTEDDPSRREQSGETRTSQTGSAEGDSGTNKKVAVKKIGDLFRDLIDAKRIYREIKILKELKHENIINLVEILDPLTPDFEDIYLVSDLMDTDLHRVIYSRQPLTPEHHQYFLYQLLLGLSFLHQADIIHRDLKPSNILVNLNCDIKICDFGLARGLNMNPAPPPNLLPPATHRAGPAAAQDVVCTYTPPDNLSGAGKWGDQKLAAAAGAGSIAATRLVRLAHQQGSSLIGAQHQVPAKTDDASDDMELTDYVVTRWYRPPEILISPFCYSKPVDLWSVGCIFAELLGRRALFAGKDHFDQLRRIVRVLGRPSTAEINKVANEGRGRHFNNPSKGTSNTKRKRSEAARRFIESLPNSDPYKLEDLFPDASKAALDLLSNLLTFDPAKRITVQEALRHEYFEGLHSVEDEPTVTTPVNWSFDNFVPTKR”: “soluble”.
